# Data: IntAct's records for PubMed 17166838
# B1: Huntingtin-associated protein 1 (Rattus norvegicus (Rat)), P54256-2 (parent)
# chain: MRPKDQVQSSAGDGTGSGDPATGTPTTQPAADPAPEPSAEPKPAPAQGTGSGQKSGSRTKTGGSFCRSRIRGDSDAPWTRYIFQGPYGPRATGLGTGRAEGIWKTPAAYIGRRPGVSGPERAAFIRELQEALCPNPLPRKKITEDDIKVMLYLLEEKERDLNTAARIGQSLVKQNSVLMEENNKLETMLGSAREEILHLRKQVNLRDDLLQLYSDSDDDEEDEEDEEEEEGEEEEREGQRDQDQQHDHPYGAPKPPPKAETLHHCPQLEALKQKLKLLEEENDHLREEASHLDNLEDKEQMLILECVEQFSEASQQMAELSEVLVLRLEGYERQQKEITQLQAEITKLQQRCQSYGAQTEKLQQQLASEKGVHPESLRAGSHMQDYGSRPRERQEDGKSHRQRSSMPAGSVTHYGYSVPLDALPSFPETLAEELRTSLRKFITDPAYFMERCDTRCREERKKEQGTMPPPPVQDLKPPEDFEAPEELVPEEELGAIEEVGTAEDGPAEETEQASEETEAWEEVEPEVDEATRMNVVVSALEASGLGPSHLDMKYVLQQLSNWQDAHSKRQQKQKVVPKGECSRRGHPPASGTSYRSSTL
# Variants of: B1
# Details: with 1433z_human YWHAZ
row,Variant,effect of a mutation on the interaction
1,MRPKDQVQSSAGDGTGSGDPATGTPTTQPAADPAPEPSAEPKPAPAQGTGSGQKSGSRTKTGGSFCRSRIRGDSDAPWTRYIFQGPYGPRATGLGTGRAEGIWKTPAAYIGRRPGVSGPERAAFIRELQEALCPNPLPRKKITEDDIKVMLYLLEEKERDLNTAARIGQSLVKQNSVLMEENNKLETMLGSAREEILHLRKQVNLRDDLLQLYSDSDDDEEDEEDEEEEEGEEEEREGQRDQDQQHDHPYGAPKPPPKAETLHHCPQLEALKQKLKLLEEENDHLREEASHLDNLEDKEQMLILECVEQFSEASQQMAELSEVLVLRLEGYERQQKEITQLQAEITKLQQRCQSYGAQTEKLQQQLASEKGVHPESLRAGSHMQDYGSRPRERQEDGKSHRQRSSMPAGSVTHYGYSVPLDALPSFPETLAEELRTSLRKFITDPAYFMERCDTRCREERKKEQGTMPPPPVQDLKPPEDFEAPEELVPEEELGAIEEVGTAEDGPAEETEQASEETEAWEEVEPEVDEATRMNVVVSALEASGLGPSHLDMKYVLQQLSNWQDAHSKRQQKQKVVPKGECSRRGHPPASGTSYRSSAL [T598A],disrupting interaction
